The target in the data set is T1, CRPM (cAMP receptor protein of Mtb) (Mycobacterium tuberculosis) (UniProt P9WMH3).
T1 sequence: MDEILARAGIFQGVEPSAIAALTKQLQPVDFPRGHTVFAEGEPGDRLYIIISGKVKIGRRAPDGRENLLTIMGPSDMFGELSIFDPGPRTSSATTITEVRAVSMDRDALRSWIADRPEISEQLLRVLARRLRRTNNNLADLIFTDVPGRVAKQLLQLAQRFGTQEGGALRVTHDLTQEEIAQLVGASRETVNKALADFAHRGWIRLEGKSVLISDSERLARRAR
The data set can be described thus: EMSA.

As to “TCAGCGACCGTCAGCACGCCAGTTCAATACGGCGAGAAGCGCGTTCTCATCGAAAGTCGGTCAAGCTGGCGGACTGAGCACTGCTCTCCGGGCTTGACCGGGGCCTCTCCCAGCTACGCCCCGAGCGTGTGCCCTGCCGACACGCGGGAACAAGACCCGCACGACCAGCGTTAGCATGCTCAGTAAGTTGAGTGCATCAGGCTCAGCTCTGAATTGACAGCACACCGCCGTCGAGGCAAGCTTGAGCGGGGTGCACTCATCATAGTGCAGGAAAGAAGCTCTACATATTCAGGAGGATTCACC (double strand) [dnaK-303]”, the binding signal (fold reduced vs dnaK-346) is 2.
